How the values were obtained:
Type in all cases: biochemical
[1] = tested on: Bz-PGGXaaXaaXaaXaaAG-OH (acyl donor) / H-XaaXaaXaaAK(DNP)-OH (acyl acceptor); test: Substrate specificity of variants (FIG. 2, FIG. 4)
Description: FIG. 2: Substrate specificity data of chosen variants identified during phage-display selection and screening out of Trypsiligase II-library. 100 μM acyl donor (Bz-PGGXaaXaaXaaXaaAG-OH); 200 μM acyl acceptor (H-XaaXaaXaaAK(DNP)-OH); 1-5 μM enzyme variant; 100 mM HEPES pH7.8, 100 mM NaCl, 10 mM CaCl2, 0.1 mM ZnCl2, T=30° C. UPLC analysis: Waters Acquity Ultra Performance LC, C18-column, gradient 5-60% acetonitrile, 5 min, detection at 360 nm; (k_(cat,AL)^app): apparent turnover rate for the aminolysis reaction. Amino acid variation of acyl donor/acyl acceptor pairs at Xaa-positions are indicated at the y-axis, e.g. YRAH relates to the acyl donor Bz-[…]-OH with the corresponding acyl acceptor H-RAHAK(DNP)-OH.
FIG. 4: Substrate specificity data of chosen variants identified during phage-display selection and screening out of Trypsiligase II-library. […]
Model transamidation reactions were performed in a solution containing 15 to 250 μM acyl donor, 2 eq. of the corresponding acyl acceptor, varying concentrations of trypsin variant, 100 mM HEPES/NaOH pH 7.8, ±0.1 mM ZnC12, 100 mM NaCl, 10 mM CaCl2) at 30° C. […] The composition of the reaction mixture was analyzed by UPCL with method I or II, depending on the absence (method 1) or presence (method II) of a 2,4-dinitrophenyl group within the acyl acceptor (see example 1). […]

[2] = tested on: R1-YRKK-R2 (Bz-PGGYRKKAG-OH) / H-RKKAK(DNP)-OH; test: Zinc dependence of the transamidation reaction, A2C8 and K7F11, YRKK; settings: 100 μM acyl donor, 200 μM acyl acceptor
Description: (§1) Model transamidation reactions were performed in a solution containing 15 to 250 μM acyl donor, 2 eq. of the corresponding acyl acceptor, varying concentrations of trypsin variant, 100 mM HEPES/NaOH pH 7.8, ±0.1 mM ZnC12, 100 mM NaCl, 10 mM CaCl2) at 30° C. Acyl donor and acyl acceptor had the same amino acids in P1′-P3′ position, e.g. Bz-[…]+H-RAHAK-OH or Bz-[…]+H-RKKAK-OH. Variations are indicated. The acyl acceptor could be equipped with a 2,4-Dinitrophenyl group (DNP) at the side chain of the terminal lysine, e.g. H-RAHAK(DNP)-OH or H-RKKAK(DNP)-OH. The reactions were started by the addition of enzyme. To record the time course of product formation and/or for kinetic evaluation of the reaction several aliquots of the reaction mixture were quenched with 25% (v/v) acetic acid at distinct time points within up to 4 hours. The composition of the reaction mixture was analyzed by UPCL with method I or II, depending on the absence (method 1) or presence (method II) of a 2,4-dinitrophenyl group within the acyl acceptor (see example 1). Measurements were performed as duplicates and errors were less than 5%.

[3] = tested on: R1-YRKH-R2 (Bz-PGGYRKHAG-OH) / H-RKHAK(DNP)-OH; test: Zinc dependence of the transamidation reaction, A2C8 and K7F11, YRKH; settings: 100 μM acyl donor, 200 μM acyl acceptor
Description: as §1

B1: A2C8: Trypsiligase II + H40F, A55A, R96E, K97D, L99F, N143E, E151Y, S190V, Q192A, S214G, G219Q, A221T (protein)
chain: IVGGYTCQENSVPYQVSLNSGHFFCGGSLINDQWVVSAAHCHESRIQVRLGEHNINVLEGNEQFVNAAKIIKHPNFDEDTFNNDIMLIKLSSPVKLNARVATVALPSSCAPAGTQCLISGWGETLSSGVNYPDLLQCLDAPLLPQADCEASYPGKITDNMVCVGFLEGGKKVCAGDSGGPVVCNGELQGIVGWGYQCTLPDNPGVYTKVCNYVDWIQDTIAAN
- acceptance of LRKH as acyl donor [1]: accepts LRKH as acyl donor
- substrate sequence with highest activity [1]: highest activity for YRKK substrate sequence
- kcat, AL^app + Zn^2+ (mkat/mol) ([2]; 0.1 mM ZnCl2): 18.04 mkat/mol
- product yield + Zn^2+ (%) ([2]; 0.1 mM ZnCl2): 59.0%
- kcat, AL^app − Zn^2+ (mkat/mol) ([2]; absence of zinc ions): 17.7 mkat/mol
- product yield − Zn^2+ (%) ([2]; absence of zinc ions): 59.7%
- kcat, AL^app + Zn^2+ (mkat/mol) ([3]; 0.1 mM ZnCl2): 8.42 mkat/mol
- product yield + Zn^2+ (%) ([3]; 0.1 mM ZnCl2): 55.0%
- kcat, AL^app − Zn^2+ (mkat/mol) ([3]; absence of zinc ions): 16.92 mkat/mol
- product yield − Zn^2+ (%) ([3]; absence of zinc ions): 57.6%

— patent US20220235344A1, “TRYPSIN VARIANTS WITH IMPROVED ENZYMATIC PROPERTIES” (BIOPHARMA TRANSLATIONSINSTITUT DESSAU FORSCHUNGS GMBH, priority 2018, published 2022)
